# Legend:
# Type in all cases: biochemical
# [1] = HTP-analysis of supernatants pretreated with base (MUGal hydrolysis); conditions: challenge at pH 7.6; activity of the variant/activity of Rd2BB (SEQ ID NO: 10); yeast culture supernatant
# In short: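 GLA variants were secreted by transformed INVSc1 yeast grown 66-84 h at 30° C. Supernatants were exposed to neutral-to-basic buffers (pH 7.0-9.7) at 37° C for 1-18 h, then assayed with MUGal in acidic citrate/McIlvaine buffer, with fluorescence read after quenching.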
# [2] = HTP-analysis of supernatants pretreated with acid (MUGal hydrolysis); conditions: challenge at pH 4.2; activity of the variant/activity of Rd2BB (SEQ ID NO: 10); yeast culture supernatant
# In short: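 Fluorescence of MUGal hydrolysis (Ex. 355 nm, Em. 448 nm) is read after sodium carbonate quench. The enzyme source is INVSc1 yeast culture supernatant, first exposed to pH 3.3-4.3 McIlvaine buffer at 37° C. for 1-3 h, then reacted at pH 4.8 for 30-180 minutes.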
# [3] = HTP-analysis of supernatants pretreated with bovine serum (MUGal hydrolysis); conditions: activity of the variant/activity of Rd2BB (SEQ ID NO: 10), yeast culture supernatant
# In short: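 Yeast INVSc1 culture supernatants containing secreted GLA variants were mixed with bovine serum (20:80) and held 1 h at 37° C. Serum-treated samples then reacted with MUGal (4 mM stock) in citrate/McIlvaine buffer (pH 4.3/4.8) for 180 min at 37° C., were quenched with sodium carbonate, and read by fluorescence (Ex 355, Em 448 nm).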
# [4] = HTP-analysis of yeast culture supernatants, no challenge (MUGal hydrolysis); conditions: activity of the variant/activity of Rd2BB (SEQ ID NO: 10), yeast culture supernatant
# In short: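 Activity read as 4-methylumbelliferyl α-D-galactopyranoside hydrolysis: fluorescence (355/448 nm) after sodium carbonate stop, following 30-180 min at 37° C with 2 mM MUGal stock at pH 4.6–4.8. Enzyme source is unchallenged culture supernatant of INVSc1 yeast expressing GLA variants, grown 66-84 h at 30° C.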
molecule,measurement,setting,value
"285 (protein, Synthetic Polypeptide sequence of Variant No. 285 of mature Human GLA) LDNGLARTPTMGWLHWERFMCNLDCQEEPDSCISEKLFMEMAERMVSEGWKDAGYEYLCIDDCWMAPQRDSEGRLQADPQRFPHGIRQLANYVHSIGLKLGIYADVGNKTCAGFPGSFGYYDIDAQTFADWGVDLLKFDGCYCDSLENLADGYKHMSLALNRTGRSIVYSCEWPLYMWPFQKPNYTEIRQYCNHWRNFADIDDSWASIKSILDWTSFNQERIVDVAGPGGWNDPDMLVIGNFGLSWNQQVTQMALWAIMAAPLFMSNDLRHISPQAKALLQDKDVIAINQDPLGKQGYQLRQGDNFEVWERPLSGLAWAVAMINRQEIGGPRSYTIAVASLGKGVACNPACFITQLLPVKRKLGFYEWTSRLRSHINPTGTVLLQLENTMQMSLKDLL",Relative Activity of GLA Variants After Challenge at pH 7.6,[1],++ (++ = 1.5 to 2.5 relative activity over Rd2BB (SEQ ID NO: 10))
same,Relative Activity of GLA Variants After Challenge at pH 4.2,[2],+ (+ = 0.5 to 1.5 relative activity over Rd2BB (SEQ ID NO: 10))
same,Relative Activity of GLA Variants After Challenge with Serum,[3],+ (+ = 0.5 to 1.5 relative activity over Rd2BB (SEQ ID NO: 10))
same,Relative Activity of GLA Variants After No Challenge (NC),[4],+ (+ = 0.5 to 1.5 relative activity over Rd2BB (SEQ ID NO: 10))
"286 (protein, Synthetic Polypeptide sequence of Variant No. 286 of mature Human GLA) LDNGLARTPTMGWLHWERFMCNLDCQEEPDSCISEKLFMEMAERMVSEGWKDAGYEYLCIDDCWMAPQRDSEGRLQADPQRFPHGIRQLANYVHSIGLKLGIYADVGNKTCAGFPGSFGYYDIDAQTFADWGVDLLKFDGCYCDSLENLADGYKHMSLALNRTGRSIVYSCEWPLYMWPFQKPNYTEIRQYCNHWRNFADIDDSWASIKSILDWTSRNQERIVDVAGPGGWNDPDMLVIGNFGLSWDQQVTQMALWAIMAAPLFMSNDLRHISPQAKALLQDKDVIAINQDPLGKQGYQLRQGDNFEVWERPLSGLAWAVAMINRQEIGGPRSYTIAVASLGKGVACNPACFITQLLPVKRKLGFYEWTSRLRSHINPTGTVLLQLENTMQMSLKDLL",Relative Activity of GLA Variants After Challenge at pH 7.6,[1],++ (++ = 1.5 to 2.5 relative activity over Rd2BB (SEQ ID NO: 10))
same,Relative Activity of GLA Variants After Challenge at pH 4.2,[2],+ (+ = 0.5 to 1.5 relative activity over Rd2BB (SEQ ID NO: 10))
same,Relative Activity of GLA Variants After Challenge with Serum,[3],+ (+ = 0.5 to 1.5 relative activity over Rd2BB (SEQ ID NO: 10))
same,Relative Activity of GLA Variants After No Challenge (NC),[4],+ (+ = 0.5 to 1.5 relative activity over Rd2BB (SEQ ID NO: 10))
"289 (protein, Synthetic Polypeptide sequence of Variant No. 289 of mature Human GLA) LDNGLARTPTMGWLHWERFMCNLDCQEEPDSCISEKLFMEMAERMVSEGWKDAGYEYLCIDDCWMAPQRDSEGRLQADPQRFPHGIRQLANYVHSIGLKLGIYADVGNKTCAGFPGSFGYYDIDAQTFADWGVDLLKFDGCYCDSLENLADGYKHMSLALNRTGRSIVYSCEWPLYMWPFQKPNYTEIRQYCNHWRNFADIDDSWASIKSILDWTSRNQERIVDVAGPGGWNDPDMLVIGNFGLSWNQQVTQMALWAIMAAPLFMSNDLRHISPQAKALLQDKDVIAINQDPLGKQGYQLRKGDNFEVWERPLSGLAWAVAMINRQEIGGPRSYTIAVASLGKGVACNPGCFITQLLPVKRKLGFYEWTSRLRSHINPTGTVLLQLENTMQMSLKDLL",Relative Activity of GLA Variants After Challenge at pH 7.6,[1],++ (++ = 1.5 to 2.5 relative activity over Rd2BB (SEQ ID NO: 10))
same,Relative Activity of GLA Variants After Challenge at pH 4.2,[2],++ (++ = 1.5 to 2.5 relative activity over Rd2BB (SEQ ID NO: 10))
same,Relative Activity of GLA Variants After Challenge with Serum,[3],++ (++ = 1.5 to 2.5 relative activity over Rd2BB (SEQ ID NO: 10))
same,Relative Activity of GLA Variants After No Challenge (NC),[4],+ (+ = 0.5 to 1.5 relative activity over Rd2BB (SEQ ID NO: 10))
"288 (protein, Synthetic Polypeptide sequence of Variant No. 288 of mature Human GLA) LDNGLARTPTMGWLHWERFMCNLDCQEEPDSCISEKLFMEMAERMVSEGWKDAGYEYLCIDDCWMAPQRDSEGRLQADPQRFPHGIRQLANYVHSIGLKLGIYADVGNKTCAGFPGSFGYYDIDAQTFADWGVDLLKFDGCYCDSLENLADGYKHMSLALNRTGRSIVYSCEWPLYMWPFQKPNYTEIRQYCNHWRNFADIDDSWASIKSILDWTSRNQERIVDVAGPGGWNDPDMLVIGNFGLSWDQQVTQMALWAIMAAPLFMSNDLRHISPQAKALLQDKDVIAINQDPLGKQGYQLRKGDNFEVWERPLSGLAWAVAMINRQEIGGPRSYTIPVASLGKGVACNPGCFITQLLPVKRKLGFYDWDSRLRSHINPTGTVLLQLENTMQMSLKDLL",Relative Activity of GLA Variants After Challenge at pH 7.6,[1],+++ (+++ = >2.5 relative activity over Rd2BB (SEQ ID NO: 10))
same,Relative Activity of GLA Variants After Challenge at pH 4.2,[2],+++ (+++ = >2.5 relative activity over Rd2BB (SEQ ID NO: 10))
same,Relative Activity of GLA Variants After Challenge with Serum,[3],+++ (+++ = >2.5 relative activity over Rd2BB (SEQ ID NO: 10))
same,Relative Activity of GLA Variants After No Challenge (NC),[4],+++ (+++ = >2.5 relative activity over Rd2BB (SEQ ID NO: 10))
"291 (protein, Synthetic Polypeptide sequence of Variant No. 291 of mature Human GLA) LDNGLARTPTMGWLHWERFMCNLDCQEEPDSCISEKLFMEMAERMVSEGWKDAGYEYLCIDDCWMAPQRDSEGRLQADPQRFPHGIRQLANYVHSKGLKFGIYADVGNKTCAGFPGSFGYYDIDAQTFADWGVDLLKFDGCYCDSLENLADGYKHMSLALNRTGRSIVYSCEWPLYMWPFQKPNYTEIRQYCNHWRNFADIDDSWASIKSILDWTSFNQERIVDVAGPGGWNDPDMLVIGNFGLSWNQQVTQMALWAIMAAPLFMSNDLRHISPQAKALLQDKDVIAINQDPLGKQGYQLRQGDNFEVWERPLSGLAWAVAMINRQEIGGPRSYTIAVASLGKGVACNPACFITQLLPVKRKLGLYEWTSRLRSHINPTGTVLLQLENTMQMSLKDLL",Relative Activity of GLA Variants After Challenge at pH 7.6,[1],+ (+ = 0.5 to 1.5 relative activity over Rd2BB (SEQ ID NO: 10))
same,Relative Activity of GLA Variants After Challenge at pH 4.2,[2],+ (+ = 0.5 to 1.5 relative activity over Rd2BB (SEQ ID NO: 10))
same,Relative Activity of GLA Variants After Challenge with Serum,[3],+ (+ = 0.5 to 1.5 relative activity over Rd2BB (SEQ ID NO: 10))
same,Relative Activity of GLA Variants After No Challenge (NC),[4],+ (+ = 0.5 to 1.5 relative activity over Rd2BB (SEQ ID NO: 10))
"287 (protein, Synthetic Polypeptide sequence of Variant No. 287 of mature Human GLA) LDNGLARTPTMGWLHWERFMCNLDCQEEPDSCISEKLFMEMAERMVSEGWKDAGYEYLCIDDCWMAPQRDSEGRLQADPQRFPHGIRQLANYVHSKGLKLGIYADVGNKTCAGFPGSFGYYDIDAQTFADWGVDLLKFDGCYCDSLENLADGYKHMSLALNRTGRSIVYSCEWPLYMWPFQKPNYTEIRQYCNHWRNFADIDDSWASIKSILDWTSRNQERIVDVAGPGGWNDPDMLVIGNFGLSWDQQVTQMALWAIMAAPLFMSNDLRHISPQAKALLQDKDVIAINQDPLGKQGYQLRKGDNFEVWERPLSGLAWAVAMINRQEIGGPRSYTIPVASLGKGVACNPGCFITQLLPVKRKLGFYEWTSRLRSHINPTGTVLLQLENTMQMSLKDLL",Relative Activity of GLA Variants After Challenge at pH 7.6,[1],+++ (+++ = >2.5 relative activity over Rd2BB (SEQ ID NO: 10))
same,Relative Activity of GLA Variants After Challenge at pH 4.2,[2],+++ (+++ = >2.5 relative activity over Rd2BB (SEQ ID NO: 10))
same,Relative Activity of GLA Variants After Challenge with Serum,[3],++ (++ = 1.5 to 2.5 relative activity over Rd2BB (SEQ ID NO: 10))
same,Relative Activity of GLA Variants After No Challenge (NC),[4],+++ (+++ = >2.5 relative activity over Rd2BB (SEQ ID NO: 10))
"290 (protein, Synthetic Polypeptide sequence of Variant No. 290 of mature Human GLA) LDNGLARTPTMGWLHWERFMCNLDCQEEPDSCISEKLFMEMAERMVSEGWKDAGYEYLCIDDCWMAPQRDSEGRLQADPQRFPHGIRQLANYVHSIGLKLGIYADVGNKTCAGFPGSFGYYDIDAQTFADWGVDLLKFDGCYCDSLENLADGYKHMSLALNRTGRSIVYSCEWPLYMWPFQKPNYTEIRQYCNHWRNFADIDDSWASIKSILDWTSFNQERIVDVAGPGGWNDPDMLVIGNFGLSWDQQVTQMALWAIMAAPLFMSNDLRHISPQAKALLQDKDVIAINQDPLGKQGYQLRQGDNFEVWERPLSGDAWAVAMINRQEIGGPRSYTIPVASLGKGVACNPGCFITQLLPVKRKLGFYDWDSRLRSHINPTGTVLLQLENTMQMSLKDLL",Relative Activity of GLA Variants After Challenge at pH 7.6,[1],+++ (+++ = >2.5 relative activity over Rd2BB (SEQ ID NO: 10))
same,Relative Activity of GLA Variants After Challenge at pH 4.2,[2],+++ (+++ = >2.5 relative activity over Rd2BB (SEQ ID NO: 10))
same,Relative Activity of GLA Variants After Challenge with Serum,[3],+++ (+++ = >2.5 relative activity over Rd2BB (SEQ ID NO: 10))
same,Relative Activity of GLA Variants After No Challenge (NC),[4],+++ (+++ = >2.5 relative activity over Rd2BB (SEQ ID NO: 10))

# Source: patent US11278600B2, “Human alpha-galactosidase variants” (Codexis, Inc., priority 2014, dated 2022)
